In the RNAGym collection of RNA variant scans (doi:10.1073/pnas.2313332121):

B1: TPR t1 (parent)
chain: GACCAAUCUGCCCUCAGAGCUCGAGAACAUCUUCGGAUGCAGAGGAGGCAGGCUUCGGUGGCGCGAUAGCGCCAACGUCCUCAACCUCCAAUGCAUCCCACCACAUGAUGAUGCCUGAAGAGCCUUGGUUUUUUG

Variants of: B1
Assay: polymerase ribozyme fitness, log enrichment relative to wild type (log ratio); higher = more active; in vitro selection for triplet polymerase activity
Method in brief: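 After PCR construction and transcription, each subunit's mutant library from a heterodimeric triplet polymerase ribozyme was annealed with a biotinylated primer, the partner subunit and triplets. Incubation was frozen, at −7 °C, and extended constructs were gel-excised, bound to streptavidin beads and amplified by RT-PCR, in one selection round done in triplicate. Fitness is the logarithm of a genotype's enrichment divided by that of the wild type, from inverse-variance-weighted replicate averages of Illumina-sequenced inputs and outputs. The base of the logarithm is 2, and genotypes needed ≥10 input reads and ≥1 read per output.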

Row | Variant | polymerase ribozyme fitness (log ratio)
1 | A74G U106A U125A | -0.353
2 | C72U G93U C123G | -1.42
3 | C72U C86U | -0.347
4 | C72U U78C U106C G117A A118U U125G | -5.09
5 | A74U C102U | -2.82
6 | C73U C86U U109C G117A G135U | -6.47
7 | C72U C101U | -0.522
8 | C72U C85G | -2.48
9 | A74C C79A U131G | -0.848
10 | C73G G117A A121U | -0.326
11 | C73U G110U | -1.17
12 | C73U G110C | -3.31
13 | C73A U92G | -2.07
14 | C72U C98A | -4.69
15 | C72U G107C U109A U130A | -5.31
16 | C73A C101U G110U | -1.75
17 | A74G G120A | 1.08
18 | C73A G135C | 0.342
19 | C73G U96G C102A | -3.86
20 | C73G U81G | -3.66
21 | C72U G77A A111U G113A | -5.99
22 | C72U U129A | -1.42
23 | A74U C80U C82G | -0.403
24 | C73U U92C | -1.83

Row | Variant | polymerase ribozyme fitness (log ratio)
25 | A74G U112G U116A | -1.07
26 | A74G C80A C82U A118U | -2.93
27 | C72U C73A A91U U131C U132C | -2.72
28 | C72U C73U | -1.09
29 | C73A U125A | -0.432
30 | C73U A90G A121C | 2.05
31 | C73G C102U A119G | -1.29
32 | C72U C79G G113A | -4.23
33 | C73U C80U G135C | -0.322
34 | C73U C114G | -1.76
35 | C73A C79U C86A C115U | -3.26
36 | C73A U81A A90G | -0.106
37 | C73A U96C | 0.0129
38 | A74U C88G A118U | -1.31
39 | C73U A105C A119U G128A | -3.98
40 | C73G C86A | -1.38
41 | C73U G110U G120A | -2.15
42 | C72U C79A U106C | -1.81
43 | A74C A105C | -2.34
44 | C73G G113C | -2.85
45 | C72U A118U U130C | 0.16
46 | C73G C124A U130G | 1.1
47 | C73A C88A C89A U112G A119C | -2.76
48 | C72U G120U | -0.256

Row | Variant | polymerase ribozyme fitness (log ratio)
49 | C73U C97A U106C | -5.37
50 | A74G C80U | -1.69
51 | C73A C101G A119U | -1.93
52 | C72U A103C | -4.5
53 | C73A G120U A121C | 0.179
54 | C72U G110C | -4.19
55 | C73G U130C | -0.482
56 | C73A A100C A119U | -1.6
57 | C72U G77C C114U | -2.28
58 | C73U G122A | -0.427
59 | A74G U112A U126A | 0.303
60 | C72U C89A C104U U125G | -1.18
61 | C72U C104A G120A G122U U131A | -1.54
62 | C73A C79G | -2.94
63 | C72U U133A | -0.682
64 | C73A C88U C114G A118U | -3.36
65 | C73A U87C | 0.572
66 | C72U C88G A90C A91G | -4.6
67 | C73U A84G A90U A103G U109A C124A | -4.51
68 | C73U G117A | 0.149
69 | C73U U112A | 1.41
70 | C73A C102G | -5.02
71 | C73A G113A U131A | -1.4
72 | C73U C82A C124G | 1.47

Row | Variant | polymerase ribozyme fitness (log ratio)
73 | C73G C101A G120C | -0.681
74 | C73U U81A C98A G113A G117U U131G | -5.03
75 | C72U U106C | -0.313
76 | C73U A95U A111U | -2.76
77 | C72U C79G G113C A118U | -5.9
78 | A74C C82U A95C | -0.152
79 | C73A C104U | 0.181
80 | C73A C97U | -0.11
81 | C73A G113A | -0.815
82 | C72U C94A U125A | -1.59
83 | A74G G120U G135C | 0.597
84 | C72U C76U | 0.954
85 | C72U C79G | -1.97
86 | C73U C124G | 0.939
87 | A74C U96A G117C | -5.37
88 | C73G C80A | -4.88
89 | C73U U133A | 0.4
90 | C72U A121C U134G | 1.71
91 | C72U U116A G120U | -1.54
92 | C73U A119U U126C | -0.929
93 | A74C U106A G120U C124G | 1.17
94 | C73G G77U C114U | -3.31
95 | A74C U109A | -5.88
96 | C72U C79A C115U | -3.58

Row | Variant | polymerase ribozyme fitness (log ratio)
97 | C72U U92A | -3.15
98 | C72U U92C | -0.581
99 | C73A G128U | -2.16
100 | C73U A121U U133A | 2.19
101 | C73U A100U | -0.959
102 | C72U G117A U133A | -1.1
103 | C73G G128A | -2.13
104 | C73U C114U C123A | -3.41
105 | C73G C101U U112C G117C | -2.53
106 | C73U C115G | -1.77
107 | C73U U78C U96A | -1.03
108 | C73G U133A | -1.27
109 | C73G G122U C123G | 0.776
110 | C73U G117A G120U | -2.36
111 | C73G A83C C101G C115U U116A | -5.12
112 | C72U C85U U109A A121G | -4.72
113 | C72U U78G C115U U116C | -2.31
114 | C73U A91G C104U U112A G113U | -0.254
115 | C73A C114G | -2.17
116 | C72U A111U | -2.46
117 | C73G U116A | -3.66
118 | C73G A111U | -4.08
119 | A74G G113A | -1.8
120 | C73U C79G | -2.02

Row | Variant | polymerase ribozyme fitness (log ratio)
121 | C73A G107C | -4.16
122 | C73U A83C | -2.2
123 | C73G C123A | 0.232
124 | C73U A103C | -3.82
125 | C72U C79U U96A G113U | -4.45
126 | C73G C86U U109A | -6.23
127 | C73A C101U G122A U131C | -1.18
128 | A74G U109G | -4.6
129 | C73A G93A U131G | -0.498
130 | C72U C123U | 0.155
131 | C72U C97U | -1.45
132 | C73U A91U U96A U112A G120U | -3.6
133 | C73U U81G C82G C123A | 0.626
134 | C73U C85U U116G | -3.31
135 | C73U C88U U92G | -2.64
136 | C73A C114G U130A | -2.99
137 | C73U U116C | -0.498
138 | C73A A103G G110A | -6.42
139 | C73G C98A | -6.22
140 | C73A C94A | -0.492
141 | C73A C94G | -0.66
142 | A74C U133A | -0.0752
143 | A74G A83U U106C | -0.743
144 | C73U C104U | 0.0551

Row | Variant | polymerase ribozyme fitness (log ratio)
145 | C72U U78A | -1.19
146 | C73U A83U C104A G110U | -4.18
147 | C73G A84U U112C | 0.269
148 | C73G A100U | -1.09
149 | C72U U116A | -3.04
150 | C73G G93C | -2.05
151 | C73G G120C G128U | -1.34
152 | C73A A108G U116A C123U | -5.63
153 | C72U U78C C97A | -4.87
154 | C73G A84U | -1.52
155 | C72U U81G U87A C102A | -7.12
156 | C73G A105U | -2.27
157 | C73A C89A A118U | -1.26
158 | C72U U96G | -1.42
159 | C73A G120A | 0.528
160 | C73A G120U | 0.347
161 | C72U G120C C123G | 0.164
162 | C73U A84U | -0.363
163 | A74C C79A U125A | -1.75
164 | C73A U87C U96C A111G | -0.596
165 | C73U C76U C97U U112A U129A | -1.35
166 | C72U A108G | -1.96
167 | C73U C79G A84G U96C | -2.54
